Patent US20070243571A1, “Method for Measurement of Activity of Homocysteinethiolactone Hydrolyzing Enzyme” (priority 2004, published 2007)
Like-named read-outs stand apart in the source and are kept apart here.

B1: Cholinesterase: Human butyrylcholinesterase (348643, Boehringer) dissolved in purified water, 2.0 U/ml solution (protein, UniProt P06276 29-602, looked up)
Cholinesterase: EDDIIIATKNGKVRGMNLTVFGGTVTAFLGIPYAQPPLGRLRFKKPQSLTKWSDIWNATKYANSCCQNIDQSFPGFHGSEMWNPNTDLSEDCLYLNVWIPAPKPKNATVLIWIYGGGFQTGTSSLHVYDGKFLARVERVIVVSMNYRVGALGFLALPGNPEAPGNMGLFDQQLALQWVQKNIAAFGGNPKSVTLFGESAGAASVSLHLLSPGSHSLFTRAILQSGSFNAPWAVTSLYEARNRTLNLAKLTGCSRENETEIIKCLRNKDPQEILLNEAFVVPYGTPLSVNFGPTVDGDFLTDMPDILLELGQFKKTQILVGVNKDEGTAFLVYGAPGFSKDNNSIITRKEFQEGLKIFFPGVSEFGKESILFHYTDWVDDQRPENYREALGDVVGDYNFICPALEFTKKFSEWGNNAFFYYFEHRSSKLPWPEWMGVMHGYEIEFVFGLPLERRDNYTKAEEILSRSIVKRWANFAKYGNPNETQNNSTSWPVFKSTEQKYLTLNTESTRIMTKLRAQQCRFWTSFFPKVLEMTGNIDEAEWEWKAGFHRWNNYMMDWKNQFNDYTSKKESCVGL

Experiments:
[1] = molecular target: T1, Human butyrylcholinesterase (Homo sapiens, UniProt P06276); assay: Hydrolysis of substrate by purified human cholinesterase; type: biochemical; settings: 2.0 U/ml human butyrylcholinesterase solution as sample
T1 construct: purchased Boehringer 348643
Experimental: Human butyrylcholinesterase (348643, Boehringer) was dissolved in purified water to prepare a 2.0 U/ml solution.
(§1) Following the above parameters, purified water, 15 μl of a sample and 200 μl of reagent 1(A) or 1(B) or 1(C) or 1(D) was dispensed and mixed, and, after a certain length of time at a constant temperature (37° C., 5 min), 50 μl of reagent 2 was added and mixed to allow reaction to start. When reagent 2 was added to the mixture of the fraction containing serum, plasma, albumin or HDL and reagent 1(A), 1(C) or 1(D), increase in absorbance was detected which was due to the reaction of the SH-group detection reagent with DL-homocysteine, which has a free SH group, formed by hydrolysis of HTL.
as §1, with “parameters,” for “parameters, purified water,”, “cholinesterase” for “albumin”, “1(A),” for “1(A), 1(C) or 1(D),”, “4-mercaptobutyric acid,” for “DL-homocysteine,”, “by” for “by hydrolysis”, “HTL hydrolyzing enzyme.” for “HTL.”

[2] = Autolysis of the substrate in reagent-blank (purified water as sample); type: physicochemical; settings: HTL, MOPS buffer pH 7.8, purified water as sample
Experimental: as §1
As evident from FIG. 2, increase in absorbance is suppressed when calcium ion is blocked by EDTA.
as §1, with “parameters,” for “parameters, purified water,”, “cholinesterase” for “albumin”, “1(A),” for “1(A), 1(C) or 1(D),”, “4-mercaptobutyric acid,” for “DL-homocysteine,”, “by” for “by hydrolysis”, “HTL hydrolyzing enzyme.” for “HTL.”
As evident from FIG. 4, increase in absorbance is suppressed when calcium ion is not present. […]

cholinesterase = cholinesterase (Homo sapiens, UniProt P06276); settings: Nescoat ChE V-2 according to the package insert
Experimental: Cholinesterase activity was measured with the above-mentioned samples and unprepared serum. Measurement of cholinesterase activity was carried out using Nescoat ChE V-2 (Alfresa Pharma Coporation) according to the package insert.

HTL hydrolyzing enzyme [3] = assay: Measurement of hydrolyzing enzyme activity for HTL (DTNB rate assay, H-7170 analyzer); type: biochemical, human; settings: substrate DL-HTL
Experimental: Hydrolyzing enzyme activity for HTL was measured with purified water and above-mentioned samples.
Reagent 1(A): SH-group detection solution; 0.2 M MOPS buffer containing 0.5 mM CaCl2 and 1.0 mM DTNB (pH 7.8).
Reagent 1(B): SH-group detection solution; 0.2 M MOPS buffer containing 2 mM EDTA and 1.0 mM DTNB (pH 7.8).
Reagent 1(C): SH-group detection solution; 0.2 M MOPS buffer containing 0.5 mM CaCl2, 0.1 mM physostigmine sulfate and 1.0 mM DTNB (pH 7.8).
Reagent 1(D): SH-group detection solution; 0.2 M MOPS buffer containing 0.5 mM CaCl2, 0.1 mM neostigmine bromide and 1.0 mM DTNB (pH 7.8).
Reagent 2: substrate solution; aqueous solution containing 125 mM DL-HTL (Tokyo Chemical Industry Co., Ltd).
For measurement of HTL hydrolyzing enzyme activity, H-7170 automatic analyzer (Hitachi, Ltd.) was used. Parameters for measurement were as follows.
Following the above parameters, purified water, 15 μl of a sample and 200 μl of reagent 1(A) or 1(B) or 1(C) or 1(D) was dispensed and mixed, and, after a certain length of time at a constant temperature (37° C., 5 min), 50 μl of reagent 2 was added and mixed to allow reaction to start.
(§2) The activity value of HTL hydrolyzing enzyme in each sample was calculated based on: the change in absorbance per unit of time (1 min) (ΔE) from 2-minute up to 4-minute time points after the addition of the substrate (reagent 2), the molecular extinction coefficient of 5-thio-2-nitrobenzoic acid at the wavelength of 480 nm, ε=2509, and the molecular extinction coefficient of the compound at the wavelength of 546 nm, ε=78.

HTL hydrolyzing enzyme [4] = assay: Measurement of hydrolyzing enzyme activity for TBL (DTNB rate assay, H-7170 analyzer); type: biochemical, human; settings: substrate TBL
Experimental: Hydrolyzing enzyme activity for TBL was measured with above-mentioned samples and unprepared serum.
Reagent 1(A): SH-group detection solution; 0.2 M MOPS buffer containing 0.5 mM CaCl2 and 1.0 mM DTNB (pH 7.2).
Reagent 1(B): SH-group detection solution; 0.2 M MOPS buffer containing 2 mM EDTA and 1.0 mM DTNB (pH 7.2).
Reagent 1(C): SH-group detection solution; 0.2 M MOPS buffer containing 0.5 mM CaCl2, 0.1 mM physostigmine sulfate and 1.0 mM DTNB (pH 7.2).
Reagent 1(D): SH-group detection solution; 0.2 M MOPS buffer containing 0.5 mM CaCl2, 0.1 mM neostigmine bromide and 1.0 mM DTNB (pH 7.2).
Reagent 2: substrate solution; aqueous solution containing 125 mM TBL (Aldrich).
For measurement of hydrolyzing enzyme activity TBL, H-7170 automatic analyzer (Hitachi, Ltd.) was used. Parameters for measurement were as follows.
Following the above parameters, 15 μl of a sample and 200 μl of reagent 1(A) or 1(B) or 1(C) or 1(D) was dispensed and mixed, and, after a certain length of time at a constant temperature (37° C., 5 min), 50 μl of reagent 2 was added and mixed to allow reaction to start.
as §2, with “enzyme for TBL” for “enzyme”

| Molecule | hydrolysis by purified human cholinesterase [1] | stability of substrate in the reaction solution (autolysis, increase in absorbance of reagent-blank) [2] | Cholinesterase activity (cholinesterase) | Cholinesterase activity (cholinesterase; listed as human cholinesterase) | activity value of HTL hydrolyzing enzyme, No addition (HTL hydrolyzing enzyme [3]; Reagent 1(A): 0.5 mM CaCl2, pH 7.8, 37° C., no inhibitor) | activity value of HTL hydrolyzing enzyme, EDTA.2Na (HTL hydrolyzing enzyme [3]; Reagent 1(B): 2 mM EDTA, pH 7.8, 37° C.) | activity value of HTL hydrolyzing enzyme, Physostigmine sulfate (HTL hydrolyzing enzyme [3]; Reagent 1(C): 0.5 mM CaCl2, 0.1 mM physostigmine sulfate, pH 7.8, 37° C.) | activity value of HTL hydrolyzing enzyme, Neostigmine bromide (HTL hydrolyzing enzyme [3]; Reagent 1(D): 0.5 mM CaCl2, 0.1 mM neostigmine bromide, pH 7.8, 37° C.) | activity value of HTL hydrolyzing enzyme for TBL, No addition (HTL hydrolyzing enzyme [4]; Reagent 1(A): 0.5 mM CaCl2, pH 7.2, 37° C., no inhibitor) | activity value of HTL hydrolyzing enzyme for TBL, EDTA.2Na (HTL hydrolyzing enzyme [4]; Reagent 1(B): 2 mM EDTA, pH 7.2, 37° C.) | activity value of HTL hydrolyzing enzyme for TBL, Physostigmine sulfate (HTL hydrolyzing enzyme [4]; Reagent 1(C): 0.5 mM CaCl2, 0.1 mM physostigmine sulfate, pH 7.2, 37° C.) | activity value of HTL hydrolyzing enzyme for TBL, Neostigmine bromide (HTL hydrolyzing enzyme [4]; Reagent 1(D): 0.5 mM CaCl2, 0.1 mM neostigmine bromide, pH 7.2, 37° C.) |
| --- | --- | --- | --- | --- | --- | --- | --- | --- | --- | --- | --- | --- |
| NC1CCSC1=O (stereo not drawn) [HTL, homocysteinethiolactone] | not hydrolyzed | unstable in the reaction solution |  |  |  |  |  |  |  |  |  |  |
| B1 |  |  | 15392 | observed | 8 | 6 | −1 | −2 | 403 | 399 | 1 | 2 |
